The source of these data is paper PMC11143242 (Nature Communications, 2024).

Common to all, as to conditions: both partners purified
For one test, the target named is MPXV B6 protein (Monkeypox virus, clade II …). Briefly: SPR; antibodies (0.5 ug/mL) […]; BIAcore 8K, 25 °C, […]; 1:1 Langmuir model. In general terms: In SPR one partner is held on a chip, and binding of the other changes the refractive index at the surface.
The target of another test is VARV B7 (Variola virus, India-1967, UniProt Q76QZ2). Briefly: SPR.
The target of the next test is CPXV CPXV199 (Cowpox virus, Brighton Red, UniProt Q8QMP6). Briefly: SPR.
Another test concerns the target MPXV B6 (T20-H279) (Monkeypox virus, clade II …). Briefly: ELISA. Background: In an ELISA, binding on a coated surface is turned into a signal by an enzyme label.
The target in test [1] is MPXV B6 SCR1-2-3-4 (T20-N241) (Monkeypox virus, clade II …). Briefly: ELISA.
Test [2] addresses MPXV B6 SCR1-2 (T20-E129) (Monkeypox virus, clade II …). Briefly: ELISA.
Test [3] has as its target MPXV B6 SCR1-2-3 (T20-K185) (Monkeypox virus, clade II …). Briefly: ELISA.

B1: hMB668 (antibody, V domains shown)
VH: QVQLVQSGAEVKKPGSSVKVSCKSSGGTFSDYAINWVRQAPGQGLEWMGRILPIVGVPNYAQKFQGRVTITADKSSSTAYKEVSGLRSEDTAVYYCARRSGINGHGLDVWGQGTTVIVSS
VL: DIVMTQSPLSLPVTPGEPASISCRSSQSLLNTNGYNYLEWYLHKPGQSPQLLIYLGSHRASGVPDRFSGSGSGTDFTLKISRAEPEDVGVYYCMQTLQTQGYTFGQGTKLEIK
notes: also called MAb hMB668; source: Expi293F, transient transfection, purified (Protein A, gel filtration)
For orientation: Kd means the constant that tells how readily two partners part at equilibrium. High values mean lower affinity, low ones higher affinity. Regarding B1, the Kd with MPXV B6 protein turned out to be 6.2 nM. For the same molecule, the binding result (in the test with VARV B7; with CPXV CPXV199; with MPXV B6 (T20-H279); in test [1]; in test [2]; in test [3]) was “binds” each time.

B2: hMB621 (antibody, V domains shown)
VH: QVQLVQSGGGVVQPGRSLRLSCVASGFSISTYPLHWVRQAPGKGLEWVAVISHDGRNKYYADSVKGRFSISRDNSKNTVYLQMNSLRVEDTAVYYCARAYPYAFDVWGQGTLVTVSS
VL: EIVLTQSPATLSVSPGETATLSCRASQSVRNDLAWYQQKPGQAPRLLIYGASTRASGIPARFSGSGSGTEFTLTISSLQSEDFAIYYCQQYKDWPPWTFGQGTKVEIK
Take B2: the Kd in the test with MPXV B6 protein was determined as 1.9 nM. The binding result (with VARV B7; in the test with CPXV CPXV199; with MPXV B6 (T20-H279); in test [1]; in test [3]) was “binds” each time.
